Results published in paper PMC7959569.

Target: Med25 AcID, Med25(394-543)-His6 (UniProt Q71SY5)
Test: stopped-flow fluorescence transient kinetics

Med25 AcID, Med25(394-543)-His6, sequence (Q71SY5 394-543): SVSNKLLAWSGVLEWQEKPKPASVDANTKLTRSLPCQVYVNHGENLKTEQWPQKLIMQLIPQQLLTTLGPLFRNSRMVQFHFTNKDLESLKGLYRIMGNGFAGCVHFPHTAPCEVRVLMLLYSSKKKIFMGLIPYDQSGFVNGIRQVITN

| fold gain in affinity against the parent TAD [fold] | Substance |
| --- | --- |
| 1.7 | ETV4^∆Nt TAD with 4-DMN on the N terminus (from UniProt P43268 49-484) (peptide) |
| 1.7 | ETV1^∆Nt TAD with 4-DMN on the N terminus (from UniProt P50549 42-477) (peptide) |
